Assay results as given in PMC2572620, “The Mycoplasma pneumoniae MPN229 gene encodes a protein that selectively binds single-stranded DNA and stimulates Recombinase A-mediated DNA strand exchange” (BMC Microbiology, 2008).

Biological target: the molecule itself
Test: SEC; Sephadex G-150 column; 500 ul of untagged Mpn SSB at 0.3 mg/ml in 50 mM Tris-HCl pH 7.5, 135 mM NaCl; calibrated with BSA, ovalbumin and cytochrome C; fractions analysed by SDS-PAGE

B1: Mpn single-stranded DNA-binding protein (Mpn SSB), natural non-tagged form (natural protein, Mycoplasma pneumoniae, UniProt P75542 1-166, looked up)
chain: MNRVFLFGKLSFDPNKLQTRTNNIGASFSLACIDSSGFNDSKSYIRITAWGKVASFVLTLKPGDSVFVEGRLSTYKMNNRSDDPNSKATYALQVIADKVYRPDEENSLEQPVDKATVIDSPFLAAKTNATENELAQAFPISLDDEDDDINPILNNDSQLEEESDDE
notes: 166 amino acids, 18.4 kDa; ORF amplified from genomic DNA of strain MAC (ATCC 15492) with primers from the initiation codon to the termination codon; expressed in its natural, non-tagged form; Cloned from strain MAC; the genome entry for MPN229 is of strain M129; also called MPN229 protein product; M. pneumoniae SSB; source: E. coli BL21(DE3), pET-11c-MpnSSB, purified (ammonium sulphate …)
With B1 the “stoichiometry N” value was 4.
